# Patent US20250122301A1 (IBIO, published 2025)
# Residue numbers refer to the chain shown, from its start.
# T1: CD25 on CD25+ cells (SUDHL-1, HEK IL-2 reporter cells, primary human regulatory T cells) (human, UniProt P01589 22-272)
# T1 construct: whole, on cells; also called IL-2Ralpha
# T1 sequence (looked up): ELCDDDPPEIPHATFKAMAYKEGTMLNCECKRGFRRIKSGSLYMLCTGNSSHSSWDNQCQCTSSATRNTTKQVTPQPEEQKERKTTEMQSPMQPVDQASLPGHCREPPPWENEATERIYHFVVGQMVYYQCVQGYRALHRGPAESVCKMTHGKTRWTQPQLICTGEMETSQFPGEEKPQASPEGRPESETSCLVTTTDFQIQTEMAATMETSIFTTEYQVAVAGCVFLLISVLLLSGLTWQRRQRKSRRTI
# T2: full-length CD25 (human CD25, recombinant protein used on biosensors) (human, UniProt P01589 22-213, limits assumed)
# T2 construct: Printed only as Human CD25 / full-length CD25; also called CD25 antigen; alpha chain of the IL-2 receptor
# T2 sequence (looked up): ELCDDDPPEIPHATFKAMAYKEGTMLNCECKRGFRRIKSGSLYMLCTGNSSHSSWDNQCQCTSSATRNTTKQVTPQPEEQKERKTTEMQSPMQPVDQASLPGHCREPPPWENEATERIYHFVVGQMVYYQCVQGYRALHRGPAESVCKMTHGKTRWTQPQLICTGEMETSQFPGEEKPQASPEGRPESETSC
# B1: AH05280 (human IgG1 reformatted) (antibody, V domains shown)
# VH: EVRLQQSGADLMKPGASVKISCKTSGYTFSNYWTEWIKQRPGHGLEWIGEILPGSGFTNYNENFKGKATFTADTSSNTTYMQLSSLTSEDSAVYYCARGGTSVVHFDYWGQGTSLTVSS
# VL: DIVMTQTPKFLLVSAGDRVTITCKASQSVNNDVLWYQQKPGQSPKLLIYYASNRYTGVPDRFTGSGYGTDFTFTISTVQAEDLAVYFCQQAYWSPYTFGGGTKLEIK
# B2: AH05249 (human IgG1 reformatted) (antibody, V domains shown)
# VH: B1 VH with E1Q, R3Q, I20M, K23R, T24A, T34I, Q82L, T87S, Y108S, S114T
# VL: B1 VL with L34V, A91D, W93R
# B3: AH05286 (human IgG1 reformatted) (antibody, V domains shown)
# VH: B1 VH with E1Q, R3Q, Q5K, T24A, T34I, F57Y, M81I, T87S, V103F, S114T
# VL: DIVLTQSPPTLSLSPGERVTLSCKASQDVNTAVAWYQQKPGQAPRLLIYWASTRHTGVPSRFSGSGSGTDFTLTISSLQPEDFATYYCQQHYSSPWTFGGGTKLEIK
# B4: D34 Fab (Fab, V domains shown)
# VH: QVQLQQSGAELVRPGVSVKISCKGSGYTFTDYAMHWVKQSHAKSLEWIGVISTYSGDVSYNQKFKGKATMTVDKSSSTAYMELARLTSEDSAIYYCARGVTFDSWGQGTTVTVSS
# VL: DIQMTQSPASLSASVGETVTITCRASENSYSYLEWYQQKQGKSPQLLVYNAKTLAEGVPSRFSGSGSGTQFSLKINSLQPEDFGTYYCQHHYGTPYTFGGGTKLEIK
# notes: Fab; also called Fab clone D34
# B5: D11 Fab (Fab, V domains shown)
# VH: B4 VH with V2I, S7P, V18L, K38R, V58A, S59I, M81L, E89D, S104Y
# VL: DIQMTQTTSSLSASLGDRVTITCRASQDISNYLEWYQQKQGKSPQLLVYNAKTLAEGVPSRFSGSGSGTQFSLKINSLQPEDFGSYYCQHHYDTPYTFGGGTKLEIK
# notes: Fab; also called Fab clone D11
# B6: D34 (human IgG1 reformatted) (antibody, V domains shown)
# VH: B4 VH
# VL: B4 VL
# B7: D11 (human IgG1 reformatted) (antibody, V domains shown)
# VH: B4 VH with V2I, S7P, V18L, K38R, V58A, S59I, M81L, E89D, S104Y
# VL: B5 VL
# B8: AH05258 (human IgG1 reformatted) (antibody, V domains shown)
# VH: B4 VH with V2I, V111L
# VL: DIVMTQSHKFMSTSVGDRVSITCKASQDVSTAVAWYQQKPGQSPKLLIYSASYRYTGVPDRFTGSGSGTDFTFTISSVQAEDLAVYYCQQHYSTPFTFGSGTKLEIK
# B9: AH05271 (human IgG1 reformatted) (antibody, V domains shown)
# VH: B4 VH with I93T, V111L
# VL: DIQMTQTPASLAASVGETVTITCRASENIYFSLAWYQQKQGKSPQLLIYNANTLEDGVPSRFSGSGSGTQFSMKINNMQPEDTATYFCKQAYDVPWTFGGGTKLEIK
# B10: D36 Fab (Fab, V domains shown)
# VH: B4 VH with S7P, V18L, K38R, V58A, S59L, M81L, S104Y, V111L
# VL: B4 VL with I2V, Q3V, I106M
# notes: Fab; also called Fab clone D36
# B11: AH05214 (human IgG1 reformatted) (antibody, V domains shown)
# VH: QIQLQQPGAELVKPGASVKLPCKASGYTFTSYWMHWVKQRPGQGLEWIGEINPSNGRTNYNEKFKSKATLTVDKSSSTAYMQLSSLTSEDSAVYYCARQLAAYWGQGTTVTVSS
# VL: DILLTQSPALMAASPGEKVTITCSVSSSISSSNLHWYQQKSETSPKPWIYGTSNLASGVPVRFSGSGSGTSYSLTISSMEAEDAATYYCQQWSSYPLTFGGGTKLEIK
# B12: AH05251 (human IgG1 reformatted) (antibody, V domains shown)
# VH: EVRLQQSGAELVRSGASVKLSCTASGFNIKDYYIHWVKQRPEQGLEWIGWIDPDNGETEYAPKFQGKATMTADTSSNTAHLQLSSLTSEDTAVYYCTVFWYGNNYAGFAYWGQGTLVTVSS
# VL: DVVMTQTPLSLPVNLGDQASISCRSSQSIVHSNGNTYLEWYLQKPGQSPKLLIYKVSNRFSGVPDRFSGSGSGTDFTLKISRVEAEDLGIYYCFQGSHVPPTFGGGTKLEIK
# B13: BP003-T2P1D7 (human IgG1 reformatted) (antibody, V domains shown)
# VH: B12 VH with E1Q, V2A, R3Y, S121A
# VL: B12 VL with M4L, N14S, R82K, I90V
# B14: AH04734 (human IgG1 reformatted) (antibody, V domains shown)
# VH: QVQLQQPAAELARPGASVKMSCKASGYTFTTSTMHWVKQRPGQGLEWIGYINPRSGYTEYNQKFKDKTTLTADKSSSTAYMQLSSLTSEDSAVYYCARHYYFDYWGQGTTVTVSS
# VL: DIQMTQSTSSLSASLGDRVTISCRASQDIRNYLNWYQQKPDGTVKLLIYYTSRLHSGVPSRFSGSGSGTDYSLTISNLEQEDIATYFCQQGNTLPPTSGGGTKLEIK
# B15: D5 Fab (Fab, V domains shown)
# VH: HVQLQQSGAELVRPGTSVKISCKASGYTFTNYWLGWVKQRPGHGLEWIGDIYPGGGYTNYNEKFKGKATLTADTSSSTAYMQLSSLTSEDSAVYFCARVTPASWGQGTSLTVSS
# VL: DIVMTQSQKFMSTSVGDRVSVTCKASQNVGTNVAWYQQKPGQSPKALIYSASYRYSGVPDRFTGSGSGTDFTLTISNVQSEDLAEYFCQQYNSYPYTFGGGTKLEMK
# notes: Fab from mouse immune phage library, expressed in E. coli; also called Fab clone D5
# B16: BP003-T2P1E3 (human IgG1 reformatted) (antibody, V domains shown)
# VH: QIQLQQSGAELVRPGTSVKMSCKAAGYTFTNYWIGWVKQRPGHGLEWIGDIHPGGGYTNYNEKFKGKATLTADTSSSTAYMQLSSLTSEDSAIYYCTSRNFAYWGQGTPVTVSS
# VL: B15 VL with M4L, M106I
# B17: D17 Fab (Fab, V domains shown)
# VH: B15 VH with H1Q, V2I, S109T, S114A
# VL: B15 VL with V3L, M4L, Y96L, M106I
# notes: Fab; also called Fab clone D17
# B18: D16 Fab (Fab, V domains shown)
# VH: B15 VH with H1Q, L4M, S109T
# VL: B15 VL with V3Q, Y96W, M106I
# notes: Fab; also called Fab clone D16
# B19: 7G7B6 (antibody, V domains shown)
# VH: EVQLVESGGDLVQPRGSLKLSCAASGFTFSSYGMSWVRQTPDKRLELVATINGYGDTTYYPDSVKGRFTISRDNAKNTLYLQMSSLKSEDTAMYFCARDRDYGNSYYYALDYWGQGTSVTVSS
# VL: QIVLSQSPAILSASPGERVTMTCRASSSVSFMHWLQQKPGSSPKPWIYATSNLASGVSARFSGSGSGTSYSLTITRVEAEDAATYYCQQWSSNPPAFGGGTKLEIK
# Experiments:
# [1] = biological target: T1, CD25 on CD25+ cells (SUDHL-1, HEK IL-2 …); test: flow cytometry, dose response on CD25+ SUDHL-1 cells;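 further: antibody binding to cells read as median fluorescence intensity of an AF647 anti-human Fc secondary, DAPI+ dead cells excluded, 20 min on ice, 5-fold dilutions from 10 ug/mL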
# Method: For each cell line, 100,000 cells were plated in a 96 well round bottom plate in cell buffer (PBS+2% HI FBS) and centrifuged. Antibody concentrations from 1-10 ug/mL were used to test the binding of each antibody. Cell were resuspended in 100 uL of antibodies/well and incubated for 20 minutes on ice. After incubation, cells were centrifuged at 300×g for 5 minutes at room temperature, and resuspended and washed with ice cold cell buffer. Cells were then stained with an anti-human Fc secondary antibody conjugated to AF647 (Biolegend) and incubated on ice for 20 min in the dark. Cells were centrifuged, washed and resuspended in cold cell buffer with DAPI and analyzed using flow cytometry (Cytoflex, Becton Dickinson). DAPI+ cell were excluded from analysis. The mean fluorescence intensity was calculated using the median (FlowJo, TreeStar).
# [2] = biological target: T1, CD25 on CD25+ cells (SUDHL-1, HEK IL-2 …); test: cell-based or functional assay
# [3] = biological target: T2, full-length CD25 (human CD25, …); test: Octet BLI, human CD25 on AR2G tip, Fab, pH 6.5
# Method: For Octet Koff rate screening in raw supernatants, 50 ul of lysate was used in 384-well Pall ForteBio Octet plates. […] Briefly, Human CD25 was coupled to AR2G tips (1 ug/ml). For data collection, baseline was assessed in PBST 1% BSA buffer at pH 6.5 for 60 seconds. Tips were then moved to 50 ul lysate pH6.5 adjusted and association measured for 300 seconds. Finally, tips were moved to PBST 1% BSA buffer at pH 6.5. Tips were then regenerated with 200 mM Tris-Glycine, pH 2.5 and neutralization with PBST, 1% BSA, pH 6.5. For data analysis, Double referencing was performed on Octet HT 11.0 software (no CD25 on tip as well as blank reference well), for reference subtraction.
# [4] = biological target: T2, full-length CD25 (human CD25, …); test: Octet BLI, human CD25 on AR2G tip, Fab, pH 7.4
Binder,EC50 [1] [µg/mL],pSTAT5 IC50 (1 ug/mL) [ng/ml] [2] [ng/ml],pSTAT5 IC50 (2 ug/mL) [ng/ml] [2] [ng/ml],pSTAT5 IC50 (5 ug/mL) [ng/ml] [2] [ng/ml],koff [3] [s⁻¹],koff [4] [s⁻¹]
B1,0.387,–,–,–,–,–
B2,0.897,–,–,–,–,–
B3,0.777,–,–,–,–,–
B4,–,2.56,2.35,2.27,0.00296,0.00285
B5,–,0.414,0.303,0.509,0.00522,0.00452
B6,1.1,–,–,–,–,–
B7,2.12,–,–,–,–,–
B8,0.184,–,–,–,–,–
B9,0.25,–,–,–,–,–
B10,–,2.23,3.45,0.378,0.00172,0.000898
B11,~51.1,–,–,–,–,–
B12,0.132,–,–,–,–,–
B13,0.125,–,–,–,–,–
B14,1.91,–,–,–,–,–
B15,–,0.303,0.488,1.65,0.00412,0.00345
B16,0.125,–,–,–,–,–
B17,–,0.251,0.217,0.283,0.00536,0.00337
B18,–,0.43,4.77,40.3,0.00591,0.004
B19,0.903,0.963,0.906,1.47,–,–
